Data as given in US20180171002A1 (BERG, published 2018).
Blank lines part the entries; values can stand above or below the molecule they belong to.

Columns and labels:
[1] = target: E.Coli-expressed FLNC (aa 1438-2128) (Homo sapiens (Human)) (UniProt Q14315); assay: ELISA, positive control
[2] = target: E.Coli-expressed partial FLNA (aa 1443-2131) (human) (UniProt P21333); assay: ELISA, positive control
[3] = target: T1, HEK293-expressed full length FLNA (UniProt: P21333) (human, UniProt P21333 2-2647); assay: ELISA, positive control
T1 construct: Full length protein; also called full length human FLNA protein; Full length filamin A

[4] = target: E.Coli-expressed FLNC (aa 1438-2128) (Homo sapiens (Human)) (UniProt Q14315); assay: ELISA, negative control
[5] = target: E.Coli-expressed partial FLNA (aa 1443-2131) (human) (UniProt P21333); assay: ELISA, negative control
[6] = target: E.Coli-expressed partial FLNB (aa 1416-2089) (Homo sapiens (Human)) (UniProt O75369); assay: ELISA, negative control
[7] = target: HEK293-expressed full length FLNB (Homo sapiens (Human)) (UniProt O75369); assay: ELISA, negative control
[8] = target: T1, HEK293-expressed full length FLNA …; assay: ELISA, negative control
[9] = target: T2, E.Coli-expressed partial FLNA (aa 1443-2131) (human, UniProt P21333 1443-2131); assay: ELISA, hybridoma supernatant on protein
T2 construct: also called FLNA Partial; partial FLNA protein
T2 sequence: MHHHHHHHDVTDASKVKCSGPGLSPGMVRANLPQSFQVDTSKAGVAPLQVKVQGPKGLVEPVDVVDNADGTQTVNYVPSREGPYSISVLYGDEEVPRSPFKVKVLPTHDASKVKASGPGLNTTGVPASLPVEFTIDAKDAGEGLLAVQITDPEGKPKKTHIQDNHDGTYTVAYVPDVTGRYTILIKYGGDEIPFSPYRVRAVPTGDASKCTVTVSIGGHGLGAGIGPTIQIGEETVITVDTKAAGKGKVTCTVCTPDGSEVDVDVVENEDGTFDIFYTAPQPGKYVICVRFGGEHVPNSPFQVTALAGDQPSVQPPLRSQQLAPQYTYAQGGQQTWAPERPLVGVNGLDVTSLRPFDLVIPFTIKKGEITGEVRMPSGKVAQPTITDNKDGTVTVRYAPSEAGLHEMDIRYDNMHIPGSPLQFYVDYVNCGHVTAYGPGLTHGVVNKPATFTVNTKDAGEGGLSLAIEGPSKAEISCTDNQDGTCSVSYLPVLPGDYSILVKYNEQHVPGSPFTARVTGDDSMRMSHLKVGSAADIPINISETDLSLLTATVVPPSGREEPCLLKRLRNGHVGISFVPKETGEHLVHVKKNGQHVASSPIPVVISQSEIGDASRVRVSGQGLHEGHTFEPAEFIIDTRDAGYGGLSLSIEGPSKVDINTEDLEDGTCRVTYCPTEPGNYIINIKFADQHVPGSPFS
Description: (§1) Next, supernatants from clone 2C12, 3F4, and 6E3 were tested to bind the above proteins by ELISA. FLNA proteins were tested for specificity, while homologous proteins FLNB and FLNC from the same family were tested for cross-reactivity. 10% pooled normal human serum was also included for any unexpected non-specific binding.

[10] = target: T1, HEK293-expressed full length FLNA …; assay: ELISA, hybridoma supernatant on protein
Description: as §1

[11] = target: T3, E.Coli-expressed FLNC (aa 1438-2128) (Homo sapiens (Human), UniProt Q14315 1438-2128); assay: ELISA, hybridoma supernatant on protein
T3 construct: also called Partial filamin C
T3 sequence: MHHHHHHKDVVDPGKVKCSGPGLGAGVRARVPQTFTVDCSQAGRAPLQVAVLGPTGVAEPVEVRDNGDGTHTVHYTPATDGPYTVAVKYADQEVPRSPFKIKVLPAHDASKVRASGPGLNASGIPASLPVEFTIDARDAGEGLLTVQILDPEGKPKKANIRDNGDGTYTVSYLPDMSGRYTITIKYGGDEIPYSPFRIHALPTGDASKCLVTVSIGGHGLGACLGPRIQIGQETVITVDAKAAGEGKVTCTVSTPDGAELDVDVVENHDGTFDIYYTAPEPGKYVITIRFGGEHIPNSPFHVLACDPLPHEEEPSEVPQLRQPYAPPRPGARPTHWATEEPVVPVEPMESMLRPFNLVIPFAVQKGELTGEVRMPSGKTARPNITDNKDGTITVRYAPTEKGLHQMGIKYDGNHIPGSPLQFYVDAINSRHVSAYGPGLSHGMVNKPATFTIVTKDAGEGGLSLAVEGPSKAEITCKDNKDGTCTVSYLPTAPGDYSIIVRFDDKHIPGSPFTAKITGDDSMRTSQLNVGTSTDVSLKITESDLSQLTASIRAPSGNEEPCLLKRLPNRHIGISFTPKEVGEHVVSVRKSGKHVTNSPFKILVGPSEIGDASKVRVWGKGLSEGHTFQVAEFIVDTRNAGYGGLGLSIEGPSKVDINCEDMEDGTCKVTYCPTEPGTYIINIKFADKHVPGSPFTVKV
Description: as §1

[12] = target: T2, E.Coli-expressed partial FLNA (aa …); assay: BLI (Octet), antibody on AMC anti-mIgG Fc capture sensor, FLNA Partial at 100 nM
Description: Kinetics studies with ForteBio Bio-Layer Interferometry (BLI) technology were carried out. BLI is a label-free technology for measuring biomolecular interactions. It is an optical analytical technique that analyzes the interference pattern of white light reflected from two surfaces: a layer of immobilized protein on the biosensor tip, and an internal reference layer. Any change in the number of molecules bound to the biosensor tip causes a shift in the interference pattern that can be measured in real-time. The Octet analysis results are shown as below in Table 3.

T1 sequence (P21333 other isoform, or with tags, fused parts or gaps limits assumed): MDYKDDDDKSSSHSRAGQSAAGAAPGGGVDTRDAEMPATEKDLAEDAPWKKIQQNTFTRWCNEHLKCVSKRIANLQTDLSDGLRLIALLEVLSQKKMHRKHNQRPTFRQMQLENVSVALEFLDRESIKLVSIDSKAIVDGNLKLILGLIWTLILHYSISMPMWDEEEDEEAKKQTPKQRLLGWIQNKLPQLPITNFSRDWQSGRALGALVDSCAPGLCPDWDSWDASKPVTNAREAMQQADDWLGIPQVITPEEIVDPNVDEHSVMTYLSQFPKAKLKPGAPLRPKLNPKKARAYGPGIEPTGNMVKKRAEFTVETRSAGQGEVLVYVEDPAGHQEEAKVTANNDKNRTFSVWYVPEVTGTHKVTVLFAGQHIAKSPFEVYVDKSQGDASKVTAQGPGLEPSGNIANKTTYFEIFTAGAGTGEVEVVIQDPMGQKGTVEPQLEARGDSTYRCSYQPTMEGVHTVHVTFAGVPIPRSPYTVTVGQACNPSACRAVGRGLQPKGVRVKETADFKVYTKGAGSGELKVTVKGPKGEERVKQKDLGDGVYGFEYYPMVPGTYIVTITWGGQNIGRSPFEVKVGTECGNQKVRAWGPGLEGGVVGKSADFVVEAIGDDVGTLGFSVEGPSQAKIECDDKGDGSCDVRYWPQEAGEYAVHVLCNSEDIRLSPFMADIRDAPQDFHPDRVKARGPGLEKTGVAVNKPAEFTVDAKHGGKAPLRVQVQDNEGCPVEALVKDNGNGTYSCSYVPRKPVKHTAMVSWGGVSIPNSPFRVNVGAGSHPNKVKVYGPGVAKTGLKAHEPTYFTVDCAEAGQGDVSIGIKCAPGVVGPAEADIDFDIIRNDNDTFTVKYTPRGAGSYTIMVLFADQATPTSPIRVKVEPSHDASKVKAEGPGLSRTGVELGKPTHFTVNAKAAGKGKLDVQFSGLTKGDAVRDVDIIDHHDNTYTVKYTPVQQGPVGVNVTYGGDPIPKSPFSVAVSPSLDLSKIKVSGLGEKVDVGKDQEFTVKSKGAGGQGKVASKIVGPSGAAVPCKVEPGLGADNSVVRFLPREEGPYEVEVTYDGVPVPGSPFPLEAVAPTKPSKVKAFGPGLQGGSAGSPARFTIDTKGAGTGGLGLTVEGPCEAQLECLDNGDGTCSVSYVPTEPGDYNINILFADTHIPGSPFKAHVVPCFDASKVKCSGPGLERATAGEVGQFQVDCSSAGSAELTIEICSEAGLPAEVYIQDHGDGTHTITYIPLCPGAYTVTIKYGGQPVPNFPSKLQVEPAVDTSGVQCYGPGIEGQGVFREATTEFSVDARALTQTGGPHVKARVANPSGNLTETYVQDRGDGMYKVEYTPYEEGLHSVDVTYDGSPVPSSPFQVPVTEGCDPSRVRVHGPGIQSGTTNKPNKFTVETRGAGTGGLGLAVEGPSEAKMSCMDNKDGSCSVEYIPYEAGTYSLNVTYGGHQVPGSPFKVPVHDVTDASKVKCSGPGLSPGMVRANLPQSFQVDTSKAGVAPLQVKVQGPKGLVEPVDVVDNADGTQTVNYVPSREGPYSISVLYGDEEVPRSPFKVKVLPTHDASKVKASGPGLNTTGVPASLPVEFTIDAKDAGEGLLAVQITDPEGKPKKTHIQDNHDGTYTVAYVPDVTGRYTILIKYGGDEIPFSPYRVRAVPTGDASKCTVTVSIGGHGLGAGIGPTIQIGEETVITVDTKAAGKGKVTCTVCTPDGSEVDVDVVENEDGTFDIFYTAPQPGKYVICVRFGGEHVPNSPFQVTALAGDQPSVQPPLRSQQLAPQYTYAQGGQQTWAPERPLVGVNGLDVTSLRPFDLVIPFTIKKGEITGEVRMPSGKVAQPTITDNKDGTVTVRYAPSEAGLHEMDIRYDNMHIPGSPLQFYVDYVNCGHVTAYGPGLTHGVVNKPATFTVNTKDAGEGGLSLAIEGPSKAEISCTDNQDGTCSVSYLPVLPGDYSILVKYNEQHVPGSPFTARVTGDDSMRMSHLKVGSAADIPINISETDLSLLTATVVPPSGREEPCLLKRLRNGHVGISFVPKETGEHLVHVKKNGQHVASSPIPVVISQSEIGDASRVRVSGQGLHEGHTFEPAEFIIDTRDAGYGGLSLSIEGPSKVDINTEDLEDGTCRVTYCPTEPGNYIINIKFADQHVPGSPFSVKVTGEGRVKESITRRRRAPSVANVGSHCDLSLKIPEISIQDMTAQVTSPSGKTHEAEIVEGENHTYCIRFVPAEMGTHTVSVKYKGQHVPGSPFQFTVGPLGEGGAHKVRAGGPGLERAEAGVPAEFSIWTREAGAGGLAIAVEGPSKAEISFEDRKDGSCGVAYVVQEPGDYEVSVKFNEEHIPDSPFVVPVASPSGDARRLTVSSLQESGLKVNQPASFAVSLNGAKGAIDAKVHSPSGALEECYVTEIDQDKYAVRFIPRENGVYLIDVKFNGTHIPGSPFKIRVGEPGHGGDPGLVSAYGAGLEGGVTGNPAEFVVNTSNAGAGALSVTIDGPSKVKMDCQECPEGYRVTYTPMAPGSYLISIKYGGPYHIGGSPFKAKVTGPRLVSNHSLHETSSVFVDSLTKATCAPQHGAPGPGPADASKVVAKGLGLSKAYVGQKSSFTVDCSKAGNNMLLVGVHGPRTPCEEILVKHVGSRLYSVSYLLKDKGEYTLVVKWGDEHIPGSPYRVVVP
Chain of E.Coli-expressed partial FLNB (aa 1416-2089) (Homo sapiens (Human)) (O75369 1416-2089, tags left off): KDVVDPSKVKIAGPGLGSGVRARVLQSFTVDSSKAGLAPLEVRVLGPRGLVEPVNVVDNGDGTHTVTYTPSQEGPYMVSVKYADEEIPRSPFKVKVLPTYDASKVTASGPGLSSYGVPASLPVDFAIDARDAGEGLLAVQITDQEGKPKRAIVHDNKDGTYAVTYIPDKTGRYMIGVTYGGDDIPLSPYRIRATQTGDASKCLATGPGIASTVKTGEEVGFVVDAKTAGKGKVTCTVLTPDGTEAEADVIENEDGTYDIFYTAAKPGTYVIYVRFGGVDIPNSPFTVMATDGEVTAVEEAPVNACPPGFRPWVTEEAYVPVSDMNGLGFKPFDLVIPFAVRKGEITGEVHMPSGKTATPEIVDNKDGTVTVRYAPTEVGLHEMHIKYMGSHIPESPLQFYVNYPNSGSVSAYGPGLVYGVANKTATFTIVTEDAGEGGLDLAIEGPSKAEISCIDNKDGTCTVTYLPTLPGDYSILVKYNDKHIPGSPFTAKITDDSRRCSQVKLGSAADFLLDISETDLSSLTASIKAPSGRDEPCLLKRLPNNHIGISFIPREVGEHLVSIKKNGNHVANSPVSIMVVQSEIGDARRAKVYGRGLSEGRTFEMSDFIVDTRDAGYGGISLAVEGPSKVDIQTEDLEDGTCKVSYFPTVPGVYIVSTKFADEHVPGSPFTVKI

Molecule: Pos ctl (positive control of the ELISA of Table 2)
ELISA test result (signal) [1]: 1.7 | ELISA test result (signal) [2]: 3.85 | ELISA test result (signal) [3]: 3.09

Molecule: Neg ctl (negative control of the ELISA of Table 2)
ELISA test result (signal) [4]: 0.042 | ELISA test result (signal) [5]: 0.072 | ELISA test result (signal) [6]: 0.069 | ELISA test result (signal) [7]: 0.072 | ELISA test result (signal) [8]: 0.043

B1: anti-FLNA murine monoclonal antibody 3F4 (antibody, IgG2b, V domains shown)
VH: EVQLQESGPGLAKPSQTLSLTCSVTGYSITSNYWNWIRKFPGNKLEYMGYISFSGSTYYNPSLKSRISITRDTSKNQYYLQLNSVTTEDTATYYCARWNYYAMDYWGQGTSVTVSS
VL: DFLLTQSPAILSVSPGERVSFSCRASQSIGTNIHWYQQRTNGSPRLLIKFASESISGIPSRFSGSGSGTDFTLTINSVESEDIADYYCQQSNSWPYTFGGGTKLEIK
notes: also called clone 3F4
ELISA test result (signal) [9]: 3.04 | ELISA test result (signal) [10]: 2.35 | ELISA test result (signal) [11]: 0.042 | Kd [12]: 0.999 nM | Response [12]: 0.283 | koff [12]: 0.000804 s⁻¹ | kon [12]: 805000 M⁻¹ s⁻¹

The next lines start with the values.

ELISA test result (signal) [9]: 2.57 | ELISA test result (signal) [10]: 2.2 | ELISA test result (signal) [11]: 0.041 | Kd [12]: 4.02 nM | Response [12]: 0.33 | koff [12]: 0.000784 s⁻¹ | kon [12]: 195000 M⁻¹ s⁻¹
B2: anti-FLNA murine monoclonal antibody 6E3 (antibody, IgG1, V domains shown)
VH: QVQLQQSGAELMKPGASVKLSCKATGYTFTGYWIEWVKQRPGHGLEWIGEILPGNGSTNCNEKFKGKATFTATTSSNTAYMQLSSLTTEDSAIYYCTTVSYWGQGTTLTVSS
VL: DVVMTQTPLSLPVSLGDQASISCRSSQSLVHSNGNTYLHWYLQKPGQSPNLLIYKVSNRFSGVPDRFTGSGSGTDFTLKISRVEAEDLGVYFCSQSTHVPFTFGSGTKLEIK
notes: also called clone 6E3; mab 6E3

ELISA test result (signal) [9]: 3.32 | ELISA test result (signal) [10]: 1.87 | ELISA test result (signal) [11]: 0.044 | Kd [12]: 4.82 nM | Response [12]: 0.222 | koff [12]: 0.000381 s⁻¹ | kon [12]: 79000 M⁻¹ s⁻¹
B3: anti-FLNA murine monoclonal antibody 2C12 (antibody, IgG1, V domains shown)
VH: QVQLKQSGPGLVQPSQSLSITCTVSGFSLTNYGVHWVRQSPGKGLEWLGVIWRGGSTDYNAAFMSRLSITKDNSKSQVFFKMNSLQADDTAIYFCALRGNYVHYYLMDYWGQGTSVTVSS
VL: DIQVTQTPSSLSASLGDRVTISCRASQDISNYLNWYQQKPDGTVKLLIYYTSRLHSGVPSRFSGSGSGTDYSLTISNLDQEDIATYFCQQGNTLPPTFGGGTNLEIK
notes: also called clone 2C12
